Data from publication PMC3752466 (Nature communications, 2013).
Values joined by “and” are separate entries in the source; they are usually repeats but may differ in a detail not shown here. Equal values may be shown once.

Biological target: T1, BoNT/B-HC (binding domain of botulinum neurotoxin type B, residues 857-1291) (UniProt P10844 857-1291)
T1 sequence: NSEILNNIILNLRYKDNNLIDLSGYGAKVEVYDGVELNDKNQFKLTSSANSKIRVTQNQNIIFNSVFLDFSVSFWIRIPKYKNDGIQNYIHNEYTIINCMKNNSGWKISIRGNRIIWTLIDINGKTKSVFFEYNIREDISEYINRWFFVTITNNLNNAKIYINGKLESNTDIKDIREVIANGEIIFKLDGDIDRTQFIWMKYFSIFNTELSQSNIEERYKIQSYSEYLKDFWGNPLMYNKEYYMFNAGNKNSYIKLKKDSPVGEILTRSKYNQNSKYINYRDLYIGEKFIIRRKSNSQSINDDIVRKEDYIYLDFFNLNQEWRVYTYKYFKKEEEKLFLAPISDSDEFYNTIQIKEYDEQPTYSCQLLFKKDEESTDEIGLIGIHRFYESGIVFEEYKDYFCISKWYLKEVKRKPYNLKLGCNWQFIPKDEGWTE
Assay: ITC

B1: rat Syt-II peptide (residue 40-60) (peptide)
peptide: GESQEDMFAKLKDKFFNEINK
  Kd: 140 nM and 180 nM
